B1: PDZK1 (parent)
chain: RETASLKLLPHQPRIVEMKKGSNG

Variants of: B1
Test: protein stability index of a GFP-peptide fusion (GPS, HEK-293T) (PSI 1-6); higher = more stable
Settings: c terminus: a fixed tail appended
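Also: lentivirally expressed fusions sorted by FACS into six bins by GFP to DsRed ratio, PSI derived from sequencing read proportions per bin multiplied by bin number.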

In order of rising protein stability index:
1. RETASLKLLPHQPRIVEMKKLSNG [G21L]  1.83
2. RETASLKLLPHQPRIVEMKKYSNG [G21Y]  2.13
3. RETASLKLLPHQPRIVEMYKGSNG [K19Y]  2.2
4. RETASLKLLPHQPRIVEMKKMSNG [G21M]  2.22
5. RETASLKLLPHQPRIVEMKKTSNG [G21T]  2.25
6. RETASLKLLPHQPRIVEMCKGSNG [K19C]  2.29
7. RETASLKLLPHQPRIVEMVKGSNG [K19V]  2.39
8. RETASLKLLPHQPRIVIMKKGSNG [E17I]  2.42
9. RETASLKLLPHQPRIVEMKKGFNG [S22F]  2.47
10. RETASLKLLPHQPRIVEMKWGSNG [K20W]  2.48
11. RETASLKLLPHQPRIVYMKKGSNG [E17Y]  2.51
12. RETASLKLLPHQPRIVEMKKCSNG [G21C]  2.58
13. RETASLKLLPHQPRIVEMKKWSNG [G21W]  2.6
14. RETASLKLLPHQPRIVEMTKGSNG [K19T]  2.61
15. RETASLKLLPHQPRIVEMRKGSNG [K19R]  2.63
16. RETASLKLLPHQPRIVEMKKFSNG [G21F]  2.64
17. RETASLKLLPHQPRIVEMHKGSNG [K19H]  2.65
18. RETASLKLLPHQPRIVLMKKGSNG [E17L]  2.66
19. RETASLKLLPHQPRIVEMKKASNG [G21A]  2.67
20. RETASLKLLPHQPRIVWMKKGSNG [E17W]  2.7
21. RETASLKLLPHQPRIVEMIKGSNG [K19I]  2.77
22. RETASLKLLPHQPRIVEMLKGSNG [K19L]  2.79
23. RETASLKLLPHQPRIVFMKKGSNG [E17F]  2.81
24. RETASLKLLPHQPRIVEMKKQSNG [G21Q]  2.92
25. RETASLKLLPHQPRIVQMKKGSNG [E17Q]  2.92
26. RETASLKLLPHQPRIVPMKKGSNG [E17P]  2.97
27. RETASLKLLPHQPRIVEMKFGSNG [K20F]  3
28. RETASLKLLPHQPRIVEMKKGLNG [S22L]  3.03
29. RETASLKLLPHQPRIVEMWKGSNG [K19W]  3.14
30. RETASLKLLPHQPRIVCMKKGSNG [E17C]  3.17
31. RETASLKLLPHQPRIVVMKKGSNG [E17V]  3.21
32. RETASLKLLPHQPRIVEMKKISNG [G21I]  3.23
33. RETASLKLLPHQPRIVEMKKGCNG [S22C]  3.25
34. RETASLKLLPHQPRIVEMNKGSNG [K19N]  3.28
35. RETASLKLLPHQPRIVEMKKSSNG [G21S]  3.37
36. RETASLKLLPHQPRIVEMKKGING [S22I]  3.38
37. RETASLKLLPHQPRIVEMKIGSNG [K20I]  3.41
38. RETASLKLLPHQPRIVEMKKNSNG [G21N]  3.43
39. RETASLKLLPHQPRIVEMKAGSNG [K20A]  3.46
40. RETASLKLLPHQPRIVGMKKGSNG [E17G]  3.48
41. RETASLKLLPHQPRIVEMSKGSNG [K19S]  3.49
42. RETASLKLLPHQPRIVEMKTGSNG [K20T]  3.51
43. RETASLKLLPHQPRIVEWKKGSNG [M18W]  3.53
44. RETASLKLLPHQPRIVEMAKGSNG [K19A]  3.55
45. RETASLKLLPHQPRIVEMKKVSNG [G21V]  3.56
46. RETASLKLLPHQPRIVEMKMGSNG [K20M]  3.57
47. RETASLKLLPHQPRIVEMKLGSNG [K20L]  3.61
48. RETASLKLLPHQPRIVEMKYGSNG [K20Y]  3.62
49. RETASLKLLPHQPRIVEMKCGSNG [K20C]  3.65
50. RETASLKLLPHQPRIVHMKKGSNG [E17H]  3.67
51. RETASLKLLPHQPRIVSMKKGSNG [E17S]  3.67
52. RETASLKLLPHQPRIYEMKKGSNG [V16Y]  3.68
53. RETASLKLLPHQPRIVEMKVGSNG [K20V]  3.7
54. RETASLKLLPHQPRIVEMKKKSNG [G21K]  3.74
55. RETASLKLLPHQPRIVEMKKPSNG [G21P]  3.77
56. RETASLKLLPHQPRIVKMKKGSNG [E17K]  3.82
57. RETASLKLLPHQPRIVEMKKGMNG [S22M]  3.85
58. RETASLKLLPHQPRIVEVKKGSNG [M18V]  3.86
59. RETASLKLLPHQPRIVTMKKGSNG [E17T]  3.86
60. RETASLKLLPHQPRIVEMKKRSNG [G21R]  3.9
61. RETASLKLLPHQPRIVEYKKGSNG [M18Y]  3.91
62. RETASLKLLPHQPRIVEMEKGSNG [K19E]  3.94
63. RETASLKLLPHQPRIVEMKPGSNG [K20P]  3.99
64. RETASLKLLPHQPRIVEFKKGSNG [M18F]  4
65. RETASLKLLPHQPRIVRMKKGSNG [E17R]  4.02
66. RETASLKLLPHQPRIVEMKKGKNG [S22K]  4.03
67. RETASLKLLPHQPRIVEMKQGSNG [K20Q]  4.06
68. RETASLKLLPHQPRIVDMKKGSNG [E17D]  4.08
69. RETASLKLLPHQPRIVEMKGGSNG [K20G]  4.14
70. RETASLKLLPHQPRIVELKKGSNG [M18L]  4.15
71. RETASLKLLPHQPRIVEIKKGSNG [M18I]  4.21
72. RETASLKLLPHQPRIVEMKNGSNG [K20N]  4.28
73. RETASLKLLPHQPRIVNMKKGSNG [E17N]  4.28
74. RETASLKLLPHQPRIVEMKKGGNG [S22G]  4.28
75. RETASLKLLPHQPRIVEMKKESNG [G21E]  4.29
76. RETASLKLLPHQPRIVECKKGSNG [M18C]  4.33
77. RETASLKLLPHQPRIVEMDKGSNG [K19D]  4.35
78. RETASLKLLPHQPRIVEMKHGSNG [K20H]  4.4
79. RETASLKLLPHQPRIVEHKKGSNG [M18H]  4.44
80. RETASLKLLPHQPRIVEMKKDSNG [G21D]  4.48
81. RETASLKLLPHQPRIVEAKKGSNG [M18A]  4.51
82. RETASLKLLPHQPRIVEMPKGSNG [K19P]  4.52
83. RETASLKLLPHQPRIVEMKKGENG [S22E]  4.54
84. RETASLKLLPHQPRIVEMKKGDNG [S22D]  4.55
85. RETASLKLLPHQPRIVEKKKGSNG [M18K]  4.56
86. RETASLKLLPHQPRIVEPKKGSNG [M18P]  4.58
87. RETASLKLLPHQPRIVEQKKGSNG [M18Q]  4.58
88. RETASLKLLPHQPRIVESKKGSNG [M18S]  4.79
89. RETASLKLLPHQPRIVEMGKGSNG [K19G]  4.83
90. RETASLKLLPHQPRIVETKKGSNG [M18T]  4.85
91. RETASLKLLPHQPRIVEMKEGSNG [K20E]  4.87
92. RETASLKLLPHQPRIVERKKGSNG [M18R]  4.93
93. RETASLKLLPHQPRIVEEKKGSNG [M18E]  5.25
94. RETASLKLLPHQPRIVEDKKGSNG [M18D]  5.3

Reference: the supplement of paper PMC10567573
